The source of these data is IntAct's records for PubMed 20477991.

B1: Phospholipid-transporting ATPase NEO1 (Saccharomyces cerevisiae), P40527 (parent)
chain: MPNPPSFKSHKQNLFNSNNNQHANSVDSFDLHLDDSFDAALDSLQINNNPEPLSKHNTVGDRESFEMRTVDDLDNFSNHSSDSHRKSSNTDTHPLMYDNRLSQDDNFKFTNIASSPPSSSNNIFSKALSYLKVSNTKNWSKFGSPIELSDQHIEREIHPDTTPVYDRNRYVSNELSNAKYNAVTFVPTLLYEQFKFFYNLYFLVVALSQAVPALRIGYLSSYIVPLAFVLTVTMAKEAIDDIQRRRRDRESNNELYHVITRNRSIPSKDLKVGDLIKVHKGDRIPADLVLLQSSEPSGESFIKTDQLDGETDWKLRVACPLTQNLSENDLINRISITASAPEKSIHKFLGKVTYKDSTSNPLSVDNTLWANTVLASSGFCIACVVYTGRDTRQAMNTTTAKVKTGLLELEINSISKILCACVFALSILLVAFAGFHNDDWYIDILRYLILFSTIIPVSLRVNLDLAKSVYAHQIEHDKTIPETIVRTSTIPEDLGRIEYLLSDKTGTLTQNDMQLKKIHLGTVSYTSETLDIVSDYVQSLVSSKNDSLNNSKVALSTTRKDMSFRVRDMILTLAICHNVTPTFEDDELTYQAASPDEIAIVKFTESVGLSLFKRDRHSISLLHEHSGKTLNYEILQVFPFNSDSKRMGIIVRDEQLDEYWFMQKGADTVMSKIVESNDWLEEETGNMAREGLRTLVIGRKKLNKKIYEQFQKEYNDASLSMLNRDQQMSQVITKYLEHDLELLGLTGVEDKLQKDVKSSIELLRNAGIKIWMLTGDKVETARCVSISAKLISRGQYVHTITKVTRPEGAFNQLEYLKINRNACLLIDGESLGMFLKHYEQEFFDVVVHLPTVIACRCTPQQKADVALVIRKMTGKRVCCIGDGGNDVSMIQCADVGVGIVGKEGKQASLAADFSITQFCHLTELLLWHGRNSYKRSAKLAQFVMHRGLIIAICQAVYSICSLFEPIALYQGWLMVGYATCYTMAPVFSLTLDHDIEESLTKIYPELYKELTEGKSLSYKTFFVWVLLSLFQGSVIQLFSQAFTSLLDTDFTRMVAISFTALVVNELIMVALEIYTWNKTMLVTEIATLLFYIVSVPFLGDYFDLGYMTTVNYYAGLLVILLISIFPVWTAKAIYRRLHPPSYAKVQEFATP

This assay covers variants of B1. As to conditions: with dop1_yeast DOP1, Q03921.
Chain of dop1_yeast DOP1, Q03921 (Q03921 whole entry): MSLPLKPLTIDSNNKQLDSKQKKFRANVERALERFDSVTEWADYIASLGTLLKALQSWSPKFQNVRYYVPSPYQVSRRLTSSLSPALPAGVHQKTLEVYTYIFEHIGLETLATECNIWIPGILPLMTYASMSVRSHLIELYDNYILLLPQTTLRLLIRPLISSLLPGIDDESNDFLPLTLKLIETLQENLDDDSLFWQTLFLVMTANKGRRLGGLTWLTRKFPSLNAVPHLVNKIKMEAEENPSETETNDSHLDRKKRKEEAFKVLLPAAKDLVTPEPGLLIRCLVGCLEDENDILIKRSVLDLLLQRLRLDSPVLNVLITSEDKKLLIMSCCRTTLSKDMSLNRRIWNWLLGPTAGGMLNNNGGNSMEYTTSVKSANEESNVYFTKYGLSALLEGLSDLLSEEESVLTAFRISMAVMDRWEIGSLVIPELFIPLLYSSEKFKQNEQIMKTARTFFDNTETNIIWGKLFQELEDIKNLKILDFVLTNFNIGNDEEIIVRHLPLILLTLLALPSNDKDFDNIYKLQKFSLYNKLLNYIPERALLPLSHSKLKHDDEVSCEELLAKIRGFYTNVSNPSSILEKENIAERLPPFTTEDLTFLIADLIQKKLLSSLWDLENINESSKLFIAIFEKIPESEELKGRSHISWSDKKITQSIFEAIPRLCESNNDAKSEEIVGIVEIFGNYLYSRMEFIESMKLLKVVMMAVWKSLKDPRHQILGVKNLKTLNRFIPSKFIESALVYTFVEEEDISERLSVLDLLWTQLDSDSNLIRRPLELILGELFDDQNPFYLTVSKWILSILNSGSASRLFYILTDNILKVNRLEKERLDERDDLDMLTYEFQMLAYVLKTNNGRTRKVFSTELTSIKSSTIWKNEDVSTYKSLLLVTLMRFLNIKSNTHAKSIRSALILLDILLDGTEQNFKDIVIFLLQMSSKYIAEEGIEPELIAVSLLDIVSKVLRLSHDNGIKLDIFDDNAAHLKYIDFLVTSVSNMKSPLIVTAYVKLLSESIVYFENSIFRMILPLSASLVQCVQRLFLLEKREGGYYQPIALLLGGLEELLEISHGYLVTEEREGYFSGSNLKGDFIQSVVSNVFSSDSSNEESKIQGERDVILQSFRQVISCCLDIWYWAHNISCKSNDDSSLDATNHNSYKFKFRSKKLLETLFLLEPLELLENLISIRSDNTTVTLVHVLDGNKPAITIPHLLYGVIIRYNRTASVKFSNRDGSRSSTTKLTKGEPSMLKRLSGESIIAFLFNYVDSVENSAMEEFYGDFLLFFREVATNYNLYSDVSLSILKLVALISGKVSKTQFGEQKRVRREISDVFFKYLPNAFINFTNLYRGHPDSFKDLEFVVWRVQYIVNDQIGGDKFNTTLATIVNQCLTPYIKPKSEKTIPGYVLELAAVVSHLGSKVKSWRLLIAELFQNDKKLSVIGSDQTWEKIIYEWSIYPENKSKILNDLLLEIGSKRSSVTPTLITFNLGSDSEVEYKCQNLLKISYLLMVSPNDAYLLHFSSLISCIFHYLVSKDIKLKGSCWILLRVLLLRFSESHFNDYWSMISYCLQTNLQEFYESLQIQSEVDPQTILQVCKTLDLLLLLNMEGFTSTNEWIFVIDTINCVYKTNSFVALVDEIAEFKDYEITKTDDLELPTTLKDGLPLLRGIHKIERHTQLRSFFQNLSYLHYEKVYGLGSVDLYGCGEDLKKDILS
Take F301S;D305G;V373A;S539P;L540P;N631S;Q655R;V748A: the “effect of a mutation on the interaction” value is listed as “decreasing interaction strength”. In the case of I284T;I449M;E605G;L680P;Y714H it was “with no effect”.
